Substitutions are numbered along the chain they refer to. Ends that are not written are not given here.
Tests used:
W741L-AR = biological target: T1, W741L-AR (Homo sapiens, UniProt P10275, W742L); assay: mammalian two-hybrid (MM2H) assay, peptide interaction with W741L-AR; type: cell-based; conditions: PC-3 cells, Gal-4 = 1; for W741L-AR CDX, peptide-AR interaction in MM2H assay: CDX = 10 µM
T1 construct: expressed in transfected cells; host or cells: PC-3
T1 sequence (P10275 1-920 W742L): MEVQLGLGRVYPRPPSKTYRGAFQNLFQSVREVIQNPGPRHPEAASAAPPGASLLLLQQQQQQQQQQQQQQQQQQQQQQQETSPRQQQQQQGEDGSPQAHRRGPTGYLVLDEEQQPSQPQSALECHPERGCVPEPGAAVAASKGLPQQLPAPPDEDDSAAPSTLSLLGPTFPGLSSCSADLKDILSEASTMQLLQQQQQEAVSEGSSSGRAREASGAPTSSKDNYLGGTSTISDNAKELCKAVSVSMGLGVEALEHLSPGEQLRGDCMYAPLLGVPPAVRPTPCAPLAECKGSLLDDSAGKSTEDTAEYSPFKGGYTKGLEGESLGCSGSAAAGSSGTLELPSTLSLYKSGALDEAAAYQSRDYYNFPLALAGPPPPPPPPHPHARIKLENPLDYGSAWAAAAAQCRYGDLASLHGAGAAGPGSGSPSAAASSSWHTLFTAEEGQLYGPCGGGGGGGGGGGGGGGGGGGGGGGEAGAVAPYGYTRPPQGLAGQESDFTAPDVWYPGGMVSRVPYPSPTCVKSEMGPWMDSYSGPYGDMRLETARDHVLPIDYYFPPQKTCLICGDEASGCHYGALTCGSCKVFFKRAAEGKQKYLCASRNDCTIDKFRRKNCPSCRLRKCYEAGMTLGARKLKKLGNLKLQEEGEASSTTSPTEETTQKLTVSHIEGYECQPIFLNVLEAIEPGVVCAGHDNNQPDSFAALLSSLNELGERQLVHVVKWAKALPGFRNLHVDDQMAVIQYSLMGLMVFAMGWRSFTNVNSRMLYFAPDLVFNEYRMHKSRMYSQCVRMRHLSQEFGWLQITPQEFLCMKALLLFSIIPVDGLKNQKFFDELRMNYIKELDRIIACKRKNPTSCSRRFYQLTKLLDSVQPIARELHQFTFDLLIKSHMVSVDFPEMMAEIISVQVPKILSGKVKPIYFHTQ
From the text: (§1) Using the phage display technique, we observed enrichment of FxxFY motif-containing peptides in CDX-W741L AR LBD screening. Peptide-AR interactions were further validated with the mammalian two-hybrid assay. […] The majority of these peptides additionally interacted with W741L-AR in the presence of bicalutamide. Protein database searches led to the identification of receptor-interacting protein kinase-1 (RIPK1) as a FxxFY motif-containing protein (^285FRPFY^289). RIPK1 is a kinase that plays a crucial role in inflammation and cell death. We hypothesized that RIPK1 is an AR-interacting candidate protein and the FxxFY motif is involved in mediating interactions with AR. To examine this theory, we tested the short FxxFY-containing peptide in a mammalian two-hybrid assay. […] In interacting domain mapping, the FxxFY motif of RIPK1 influenced binding to AR in the GST pull-down assay, mediating AR interactions predominantly through DBD-LBD, as depicted in Figure 1B. […] RIPK1 contains an amino-terminal kinase domain, an intermediate domain and a carboxy-terminal death domain [17]. […] We further examined tissue expression of RIPK1 in the prostate gland via immunohistochemical staining. As shown in Figure 1E and 1F, RIPK1 was enriched in benign prostate hyperplasia and non-tumor areas, but not the tumor area. In view of the collective data, we propose that RIPK1 is a bona fide AR coregulator.
(§2) The assay procedures were performed as described previously. The PC-3 cell line was used for the mammalian two-hybrid and reporter gene assays.

wt-AR = biological target: T2, wt-AR (Homo sapiens, UniProt P10275); assay: mammalian two-hybrid (MM2H) assay, peptide interaction with wt-AR; type: cell-based; conditions: PC-3 cells, Gal-4 = 1; for wt-AR DHT, peptide-AR interaction in MM2H assay: DHT = 10 nM
T2 construct: expressed in transfected cells; host or cells: PC-3
T2 sequence (P10275 1-920): T1 sequence (P10275 1-920 W742L) with L742W
From the text: as §1, §2

Substance	W741L-AR CDX, peptide-AR interaction in MM2H assay (W741L-AR)	W741L-AR Ethanol, peptide-AR interaction in MM2H assay (W741L-AR)	wt-AR DHT, peptide-AR interaction in MM2H assay (wt-AR)	wt-AR Ethanol, peptide-AR interaction in MM2H assay (wt-AR)
C414-FY: phage display screened peptide NPSSM-FEKFY-LR (NPSSMFEKFYLR; also: fused to Gal4 DNA-binding domain, end not given here)	532	2	2,653	10
C1-FY: phage display screened peptide SYT-FNQFY-YSTA (SYTFNQFYYSTA; also: fused to Gal4 DNA-binding domain, end not given here)	511	8	680	19
CA9-FY: phage display screened peptide SL-FTSFY-TGSGS (SLFTSFYTGSGS; also: fused to Gal4 DNA-binding domain, end not given here)	190	5	1,517	20
CON-1: negative control peptide MYKP-HNHHQ-TSS (MYKPHNHHQTSS; also: fused to Gal4 DNA-binding domain (not in chain)) [reference compound]	1	1	1	1
C315-FY: phage display screened peptide APSLNR-FATFY-H (APSLNRFATFYH; also: fused to Gal4 DNA-binding domain, end not given here)	2	1	6	1
C4-FY: phage display screened peptide SPL-FSSFY-HART (SPLFSSFYHART; also: fused to Gal4 DNA-binding domain, end not given here)	114	1	340	4
CA-10-FY: phage display screened peptide EHSM-FHSFY-VQG (EHSMFHSFYVQG; also: fused to Gal4 DNA-binding domain, end not given here)	14	4	277	12
RIP-p: short peptide of novel AR coregulator candidate RIPK1, GIEEK-FRPFY-LSQLE (GIEEKFRPFYLSQLE; also: fused to Gal4 DNA-binding domain (not in chain))	554	12	159	2
#3-18: positive control peptide NTNA-FSRLF-YPS (NTNAFSRLFYPS; also: fused to Gal4 DNA-binding domain, end not given here) [reference compound]	128	9	590	10
C412-FY: phage display screened peptide APSDTY-FQRFY-R (APSDTYFQRFYR; also: fused to Gal4 DNA-binding domain, end not given here)	2	1	6	12
C411-FY: phage display screened peptide NDTPVK-FAHFY-H (NDTPVKFAHFYH; also: fused to Gal4 DNA-binding domain, end not given here)	3	2	3	7
C8-FY: phage display screened peptide GD-FKSFY-LATTW (GDFKSFYLATTW; also: fused to Gal4 DNA-binding domain, end not given here)	86	2	484	17

Reference: paper PMC5642495, “Characterization of a novel androgen receptor (AR) coregulator RIPK1 and related chemicals that suppress AR-mediated prostate cancer growth via peptide and chemical screening” (Oncotarget, 2017)
